{"source": "patent US20170274068A1", "about": "“IMMUNOLOGICAL REAGENT” (priority 2014, published 2017)", "molecules": {"B1": {"name": "OVA: protein antigen OVA used as model antigen, alone (protein, UniProt P01012 2-386, looked up)", "Ovalbumin": "GSIGAASMEFCFDVFKELKVHHANENIFYCPIAIMSALAMVYLGAKDSTRTQINKVVRFDKLPGFGDSIEAQCGTSVNVHSSLRDILNQITKPNDVYSFSLASRLYAEERYPILPEYLQCVKELYRGGLEPINFQTAADQARELINSWVESQTNGIIRNVLQPSSVDSQTAMVLVNAIVFKGLWEKAFKDEDTQAMPFRVTEQESKPVQMMYQIGLFRVASMASEKMKILELPFASGTMSMLVLLPDEVSGLEQLESIINFEKLTEWTSSNVMEERKIKVYLPRMKMEEKYNLTSVLMAMGITDVFSSSANLSGISSAESLKISQAVHAAHAEINEAGREVVGSAEAGVDAASVSEEFRADHPFLFCIKHIATNAVLFFGRCVSP"}}, "key": {"[1]": {"experiment": "Optical density of antigen and lipopeptide formulations (450 nm)", "assay_type": "physicochemical", "settings": "constant OVA (25 μg) plus increasing lipopeptide, up to 3-fold molar excess, PBS", "protocol": "Optical density of antigen and lipopeptide formulations. A constant amount (0.55 nmol; 25 μg) of OVA was mixed with each lipopeptide at different protein:lipopeptide molar ratios in 50 μl of PBS in a 96-well plate at room temperature. The optical density of these solutions was then measured on a plate reader at a wavelength of 450 nm."}, "CD8+CD45.1+ OT-I cells": {"system": "CD8+CD45.1+ OT-I cells", "experiment": "In vivo proliferative T cell responses, adoptive transfer of CFSE labelled OT-I cells", "design": "species or system C57BL/6 mice", "settings": "3 μg OVA alone or with 3-fold molar excess lipopeptide, s.c., inguinal LNs day 3", "description": "In vivo proliferative T cell responses. […] Inguinal LNs were obtained 3 days after vaccination and CFSE intensities of CD8^+CD45.1^+ cells measured by flow cytometry.\nTo characterise early events associated with vaccine-mediated induction of CD8^+ T cell responses, the present inventors utilised the adoptive transfer of CD8^+ T cells from OTI transgenic mice that express the Vα2 TCR specific for OVA257. […] Analysis of OTI T cells in the draining lymph nodes of vaccinated animals was then carried out 3 days later and the loss of CFSE in these cells was used as an indicator of T cell proliferation."}, "[2]": {"experiment": "Dynamic light scattering analysis of vaccine formulations", "assay_type": "physicochemical", "experimental": "FIG. 3. Particle size distribution of antigen and lipopeptide formulations. OVA (25 μg) was mixed with each lipopeptide at a 1:3 molar ratio of protein to lipopeptide in […] of PBS in a 96-well plate at room temperature. The size distribution of particulates in samples were then analysed by dynamic light scattering with each profile depicting the hydrodynamic radius (nm) of particles detected versus the percentage intensity of scattered light (% intensity).\nTo determine the size of complexes formed between OVA and each lipopeptide, we analysed these formulations by dynamic light scattering."}}, "data": [{"molecule": "CCCCCCCCCCCCCCCC(=O)OCC(CSCC(N)C(=O)N[C@@H](CO)C(=O)N[C@@H](CO)C(=O)NCCCC[C@H](NC(=O)[C@H](CCCCNC(=O)[C@H](CCCCNC(=O)[C@@H](N)CCCNC(=N)N)NC(=O)[C@@H](N)CCCNC(=N)N)NC(=O)[C@H](CCCCNC(=O)[C@@H](N)CCCNC(=N)N)NC(=O)[C@@H](N)CCCNC(=N)N)C(N)=O)OC(=O)CCCCCCCCCCCCCCC", "note": "(some centres unmarked) [R4Pam2Cys]", "values": [{"measurement": "optical density (OD) of solutions, solubility", "setting": "[1]", "result": "increase in OD"}]}, {"molecule": "OVA: protein antigen OVA used as model antigen, alone", "values": [{"measurement": "division of T cells (percentage of OT-I cells which proliferated)", "setting": "CD8+CD45.1+ OT-I cells", "result": "~37", "unit": "%"}]}, {"molecule": "B1", "values": [{"measurement": "Hydrodynamic diameter (nm)", "setting": "[2]; DLS at 25° C in PBS, mixtures: OVA 25 μg, 1:3 molar ratio protein to lipopeptide", "result": "199.5 ± 42.6", "unit": "nm"}, {"measurement": "% Pd (polydispersity)", "setting": "[2]; DLS at 25° C, <20% is considered monodispersed", "result": "27.1 ± 11.5", "unit": "%"}, {"measurement": "particle size of sample alone", "setting": "[2]; OVA or lipopeptide alone", "result": "157-242 nm"}]}]}
